Patent US20220332804A1 (CSL INNOVATION, published 2022)

T1: human C2a (activated human C2) (human, UniProt P06681 244-752)
T1 construct: the whole entry is named here; also called huC2a
T1 sequence: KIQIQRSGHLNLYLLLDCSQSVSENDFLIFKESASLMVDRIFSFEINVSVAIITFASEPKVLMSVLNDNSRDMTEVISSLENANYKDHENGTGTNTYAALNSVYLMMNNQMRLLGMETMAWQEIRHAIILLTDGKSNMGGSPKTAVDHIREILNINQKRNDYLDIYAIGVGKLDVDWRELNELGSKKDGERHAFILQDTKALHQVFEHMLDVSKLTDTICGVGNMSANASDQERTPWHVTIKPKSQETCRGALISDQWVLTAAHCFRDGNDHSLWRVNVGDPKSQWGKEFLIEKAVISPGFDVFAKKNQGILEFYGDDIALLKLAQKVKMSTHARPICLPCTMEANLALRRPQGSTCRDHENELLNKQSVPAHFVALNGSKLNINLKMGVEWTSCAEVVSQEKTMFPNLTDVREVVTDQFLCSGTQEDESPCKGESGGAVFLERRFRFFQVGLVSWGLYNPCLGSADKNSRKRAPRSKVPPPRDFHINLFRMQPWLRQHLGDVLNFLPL

T2: human C2b (human, UniProt P06681 21-243)
T2 construct: the whole entry is named here
T2 sequence: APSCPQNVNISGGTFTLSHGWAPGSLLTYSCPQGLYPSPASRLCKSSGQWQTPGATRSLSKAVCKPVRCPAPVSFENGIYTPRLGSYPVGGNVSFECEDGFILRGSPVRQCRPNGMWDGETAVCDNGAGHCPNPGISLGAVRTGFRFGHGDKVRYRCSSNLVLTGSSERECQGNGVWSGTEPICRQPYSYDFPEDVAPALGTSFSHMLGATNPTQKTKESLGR

T3: human complement C2 zymogen (human, UniProt P06681 21-752)
T3 construct: also called huC2; human C2
T3 sequence: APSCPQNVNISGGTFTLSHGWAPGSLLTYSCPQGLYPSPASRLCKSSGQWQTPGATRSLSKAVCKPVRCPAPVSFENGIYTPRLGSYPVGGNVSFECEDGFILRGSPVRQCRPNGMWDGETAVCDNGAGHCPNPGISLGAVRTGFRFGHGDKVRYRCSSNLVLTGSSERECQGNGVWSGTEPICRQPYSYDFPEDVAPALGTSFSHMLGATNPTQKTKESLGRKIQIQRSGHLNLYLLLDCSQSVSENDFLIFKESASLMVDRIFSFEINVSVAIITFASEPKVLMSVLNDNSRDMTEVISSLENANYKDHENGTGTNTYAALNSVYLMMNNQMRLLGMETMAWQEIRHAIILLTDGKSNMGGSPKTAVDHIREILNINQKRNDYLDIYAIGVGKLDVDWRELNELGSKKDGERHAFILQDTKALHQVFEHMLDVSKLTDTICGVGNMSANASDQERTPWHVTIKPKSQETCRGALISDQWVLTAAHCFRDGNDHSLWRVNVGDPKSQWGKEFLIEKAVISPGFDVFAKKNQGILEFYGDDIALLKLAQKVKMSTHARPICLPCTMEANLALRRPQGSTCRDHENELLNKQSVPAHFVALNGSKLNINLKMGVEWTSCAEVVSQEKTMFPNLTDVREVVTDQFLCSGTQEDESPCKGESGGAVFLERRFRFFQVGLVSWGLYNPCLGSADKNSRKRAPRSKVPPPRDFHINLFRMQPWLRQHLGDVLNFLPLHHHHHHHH


What was measured:
[1] = biological target: T4, human FcRn/β2m (human, UniProt P55899 24-297; P61769 21-119); test: SPR, antibody immobilised, FcRn/β2m analyte, pH 6.0
T4 construct: Soluble FcRn/β2m injected as analyte over immobilised antibody; also called neonatal Fc receptor
Protocol: (§1) Anti-C2 mAbs (1 μg/mL at pH 5) were immobilized on a carboxylmethyldextran (CM5) sensorchip surface using standard EDC/NHS chemistry. Human and Cyno FcRn/β2m (40 μM) were prepared in running buffer (10 mM HEPES, 150 mM NaCl, 10 mM MES adjusted to either pH 6 or pH 7.3) and injected on the immobilized anti-C2 surface at concentrations ranging from 0.078 to 40 μM, prepared in two-fold dilutions in running buffer. Association and dissociation phases were monitored for 180 and 600 seconds, respectively. […] Double referenced sensorgrams were fitted to either a 1:1 kinetic model (pH 6), including a term for mass transport limitation or to a 1:1 steady state model (pH 7.3) where responses at the end of the association phase were plotted against respective concentrations.
(§2) Binding to both human and cynomolgus monkey FcRn was tested using the SPR methods described above.

[2] = biological target: T4, human FcRn/β2m; test: SPR, antibody immobilised, FcRn/β2m analyte, pH 7.3
Protocol: as §1, §2

[3] = biological target: T4, human FcRn/β2m; test: SPR, antibody immobilised, FcRn/β2m analyte, pH 6.0; pH 6.0
Protocol: as §1, §2

[4] = biological target: T5, cynomolgus monkey FcRn/β2m (cynomolgus monkey, UniProt Q8SPV9 24-297; Q8SPW0 21-119, limits assumed); test: SPR, immobilised antibody, cyno FcRn/b2m analyte, pH 6.0; pH 6.0
T5 construct: injected in solution over immobilised antibody; also called Cyno FcRn/β2m
T5 sequence (Q8SPV9 24-297 limits assumed, chain 1 of 2): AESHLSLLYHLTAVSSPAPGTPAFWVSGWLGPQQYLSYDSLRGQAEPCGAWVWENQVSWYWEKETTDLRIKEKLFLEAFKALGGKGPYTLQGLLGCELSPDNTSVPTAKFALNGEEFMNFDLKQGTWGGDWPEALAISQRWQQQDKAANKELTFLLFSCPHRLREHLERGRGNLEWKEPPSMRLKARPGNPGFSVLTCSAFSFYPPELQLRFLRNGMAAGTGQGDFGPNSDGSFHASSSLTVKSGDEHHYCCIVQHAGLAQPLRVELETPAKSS
T5 sequence (Q8SPW0 21-119 limits assumed, chain 2 of 2): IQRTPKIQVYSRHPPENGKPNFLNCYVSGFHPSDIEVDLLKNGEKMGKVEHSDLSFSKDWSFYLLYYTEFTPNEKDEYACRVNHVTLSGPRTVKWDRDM
Protocol: as §1, §2

[5] = biological target: T1, human C2a (activated human C2); test: SPR, HBS-EP, pH 7.3, 37 C
Protocol: (§3) Surface plasmon resonance (SPR, Biacore) was used for all binding affinity analyses. In brief, goat anti-human IgG was directly immobilised onto the carboxymethyl dextran surface of CM5 sensorchips to approximately 12,000 RU using standard NHS/EDC chemistry at pH 5. The immobilised antibody surface was pre-conditioned with ten injections of polyclonal human IgG (Privigen 60 s) prepared at 1 μg/mL. Ligands (anti-C2 mAbs) were captured at the beginning of each cycle as described below. An adjacent spot or flow cell in which only Polyclonal IgG was capture was used as a reference surface. The goat anti-human IgG Fc antibody surface was regenerate in 100 mM H3PO4, injected for 45 seconds at the end of each cycle. Experiments were performed at 37° C. and the flow rate of each experiment was kept constant at 30 μL/min.
(§4) Purified human C2 zymogen and human C2a were tested at concentrations ranging from 1.9 to 500 nM while human C2b was tested at concentrations ranging from 1.9 to 1000 nM. All experiments were performed in HBS-EP buffer supplemented with 0.1% BSA at 37° C. and pH 7.3. Each antibody was tested against human C2 zymogen and human C2a in duplicate and against C2b in quadruplicate. The flow rate was set to 30 μL/min. Each analyte concentration was tested in duplicate.

[6] = biological target: T2, human C2b; test: SPR, HBS-EP, pH 7.3, 37 C
Protocol: as §3, §4

[7] = biological target: T3, human complement C2 zymogen; test: SPR, human C2 zymogen analyte, HBS-EP, pH 7.3, 37 C
Protocol: as §3, §4

Kd [1] | Kd [2] | Kd [7] | Binder | binding result [5] | binding result [6] | other results
22 nM | 3300 nM |  | RF16-226 M252Y, N286E, N434Y (antibody, human IgG4 S228P, lambda) heavy: EVQLVQSGAEVKKPGESLKISCKGSGYSFTSYWIGWVRQMPGKGLEWMGIIYPGDSDTRYSPSFQGQVTISADKSISTAYLQWSSLKASDTAMYYCARRFSYSSGWDMWGQGTLVTVSSASTKGPSVFPLAPCSRSTSESTAALGCLVKDYFPEPVTVSWNSGALTSGVHTFPAVLQSSGLYSLSSVVTVPSSSLGTKTYTCNVDHKPSNTKVDKRVESKYGPPCPPCPAPEFLGGPSVFLFPPKPKDTLYISRTPEVTCVVVDVSQEDPEVQFNWYVDGVEVHEAKTKPREEQFNSTYRVVSVLTVLHQDWLNGKEYKCKVSNKGLPSSIEKTISKAKGQPREPQVYTLPPSQEEMTKNQVSLTCLVKGFYPSDIAVEWESNGQPENNYKTTPPVLDSDGSFFLYSRLTVDKSRWQEGNVFSCSVMHEALHYHYTQKSLSLSLGK light: SYELTQPPSVSVSPGQTARITCSGDALTSKYVAWYQQKSGLAPLLVIYEDTRRPSGIPAKFSGSSSGSVATLTISGAHGDDEADYYCYSTDASGHQRVFGGGTKLTVLSQPKAAPSVTLFPPSSEELQANKATLVCLISDFYPGAVTVAWKADGSPVKAGVETTKPSKQSNNKYAASSYLSLTPEQWKSHRSYSCQVTHEGSTVEKTVAPTECS |  |  | 
 |  |  | RF16-226 M428L, N434A (antibody, human IgG4 S228P, lambda) heavy: not shown light: SYELTQPPSVSVSPGQTARITCSGDALTSKYVAWYQQKSGLAPLLVIYEDTRRPSGIPAKFSGSSSGSVATLTISGAHGDDEADYYCYSTDASGHQRVFGGGTKLTVLSQPKAAPSVTLFPPSSEELQANKATLVCLISDFYPGAVTVAWKADGSPVKAGVETTKPSKQSNNKYAASSYLSLTPEQWKSHRSYSCQVTHEGSTVEKTVAPTECS |  |  | Kd [3]: 640 nM
 |  |  | RF16-226 Fc mutant M428L, N434A (antibody, human IgG4 S228P, lambda) heavy: not shown light: SYELTQPPSVSVSPGQTARITCSGDALTSKYVAWYQQKSGLAPLLVIYEDTRRPSGIPAKFSGSSSGSVATLTISGAHGDDEADYYCYSTDASGHQRVFGGGTKLTVLSQPKAAPSVTLFPPSSEELQANKATLVCLISDFYPGAVTVAWKADGSPVKAGVETTKPSKQSNNKYAASSYLSLTPEQWKSHRSYSCQVTHEGSTVEKTVAPTECS |  |  | Kd [4]: 420 nM
10 nM | 1200 nM |  | RF16-226 M252Y, V308P, N434Y (antibody, human IgG4 S228P, lambda) heavy: EVQLVQSGAEVKKPGESLKISCKGSGYSFTSYWIGWVRQMPGKGLEWMGIIYPGDSDTRYSPSFQGQVTISADKSISTAYLQWSSLKASDTAMYYCARRFSYSSGWDMWGQGTLVTVSSASTKGPSVFPLAPCSRSTSESTAALGCLVKDYFPEPVTVSWNSGALTSGVHTFPAVLQSSGLYSLSSVVTVPSSSLGTKTYTCNVDHKPSNTKVDKRVESKYGPPCPPCPAPEFLGGPSVFLFPPKPKDTLYISRTPEVTCVVVDVSQEDPEVQFNWYVDGVEVHNAKTKPREEQFNSTYRVVSVLTPLHQDWLNGKEYKCKVSNKGLPSSIEKTISKAKGQPREPQVYTLPPSQEEMTKNQVSLTCLVKGFYPSDIAVEWESNGQPENNYKTTPPVLDSDGSFFLYSRLTVDKSRWQEGNVFSCSVMHEALHYHYTQKSLSLSLGK light: SYELTQPPSVSVSPGQTARITCSGDALTSKYVAWYQQKSGLAPLLVIYEDTRRPSGIPAKFSGSSSGSVATLTISGAHGDDEADYYCYSTDASGHQRVFGGGTKLTVLSQPKAAPSVTLFPPSSEELQANKATLVCLISDFYPGAVTVAWKADGSPVKAGVETTKPSKQSNNKYAASSYLSLTPEQWKSHRSYSCQVTHEGSTVEKTVAPTECS |  |  | 
 |  | 7 nM | RF16-226G (antibody, human IgG4 S228P, lambda) heavy: not shown light: SYELTQPPSVSVSPGQTARITCSGDALTSKYVAWYQQKSGQAPVLVIYEDTRRPSGIPERFSGSSSGTMATLTISGAQVEDEADYYCYSTDASGHQRVFGGGTKLTVLGQPKAAPSVTLFPPSSEELQANKATLVCLISDFYPGAVTVAWKADSSPVKAGVETTTPSKQSNNKYAASSYLSLTPEQWKSHRSYSCQVTHEGSTVEKTVAPTECS | no binding (tested: C2a tested up to 500 nM) | no binding (tested: C2b tested up to 1000 nM) | 
 |  | 8 nM | RF16-226G YPY (RF16-226G with the M252Y, V308P and N434Y Fc mutations) (antibody, human IgG4 S228P, lambda) heavy: EVQLVQSGAEVKKPGESLKISCKGSGYSFTSYWIGWVRQMPGKGLEWMGIIYPGDSDTRYSPSFQGQVTISADKSISTAYLQWSSLKASDTAMYYCARRFSYSSGWDMWGQGTLVTVSSASTKGPSVFPLAPCSRSTSESTAALGCLVKDYFPEPVTVSWNSGALTSGVHTFPAVLQSSGLYSLSSVVTVPSSSLGTKTYTCNVDHKPSNTKVDKRVESKYGPPCPPCPAPEFLGGPSVFLFPPKPKDTLYISRTPEVTCVVVDVSQEDPEVQFNWYVDGVEVHNAKTKPREEQFNSTYRVVSVLTPLHQDWLNGKEYKCKVSNKGLPSSIEKTISKAKGQPREPQVYTLPPSQEEMTKNQVSLTCLVKGFYPSDIAVEWESNGQPENNYKTTPPVLDSDGSFFLYSRLTVDKSRWQEGNVFSCSVMHEALHYHYTQKSLSLSLGK light: SYELTQPPSVSVSPGQTARITCSGDALTSKYVAWYQQKSGQAPVLVIYEDTRRPSGIPERFSGSSSGTMATLTISGAQVEDEADYYCYSTDASGHQRVFGGGTKLTVLGQPKAAPSVTLFPPSSEELQANKATLVCLISDFYPGAVTVAWKADSSPVKAGVETTTPSKQSNNKYAASSYLSLTPEQWKSHRSYSCQVTHEGSTVEKTVAPTECS | no binding (tested: C2a tested up to 500 nM) | no binding (tested: C2b tested up to 1000 nM) | 
